The values below come from the nanobody polyreactivity screen of Harvey et al. (2022).

A short description of this data set: yeast display, Sf9 membrane polyspecificity reagent, FACS + sequencing; frameworks hold sequencing errors. The method in brief: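 Using colony PCR, genes from sorted yeast display clones were amplified, then sequenced on MiSeq at 2 × 250 and filtered by CDR length. The clones had been stained with 10% biotinylated, detergent-solubilized Sf9 membrane reagent for 1 hour at 4 °C and sorted by FACS into low and high (top ~1%) gates on anti-HA and streptavidin fluorescence. Polyreactivity labels come from the gate of origin.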
Regarding “QVQLVESGGGLVQAGGSLRLSCAASGSIFPDYAMGWYRQAPGKERELVAAITWRDDSSYYADSVKGRFTISRDNAKNTVYLQMNSLKPEDTAVYYCNASALDPLYAKDDYWGQGTQVTVSS”, the “polyreactivity (PSR sort gate)” value is given as “low polyreactivity”.

As to “QVQLVESGGGLVQAGGSLRLSCAASGRIFVRYVMGWYRQAPGKERELVAAITKSGASTYYADSVKGRFTISRDNAKNTVYLQMNSLKPEDTAVYYCNRDLVDSYGYWGQGTQVTVSS”, the “polyreactivity (PSR sort gate)” value is “high polyreactivity”.

As to “QVQLVESGGGLVQAGGSLRLSCAASGRIFIKYAMGWYRQAPGKERELVAAISQSGGSTYYADSVKGRFTISRDNAKNTVYLQMNSLKPEDTAVYYCAVRLYYSIRYYYWGQGTQVTVSS”, the “polyreactivity (PSR sort gate)” value is listed as “high polyreactivity”.

For “QVQLVESGGGLVQAGGSLRLSCAASGRTFYRYAMGWYRQAPGKESELVAAISSSGGSTYYADSVKGRFTISRDNAKNTVYFQMNSLKPEDTAVYDCADQYFLFTTPYRYAPRMGYWGQGTQVTLSS”, the “polyreactivity (PSR sort gate)” value was “high polyreactivity”.

As for “QVQLVESGGGLVQAGGSHRLSCAASGSTFAYYAMGWYRQAPGKERELVATISERGGTTYYADSVKGRFTLSRDNAKNTVYFQMNILKPEVTAVYYCAADHSGYWTYYYDYYYWGQGTQVNVSS”, the “polyreactivity (PSR sort gate)” value is on record as “low polyreactivity”.

“QVQLVESGGGLVQAGGSLRLSCAASGRIFQIYAMGWYRQAPGKERELVAAISNRGGSTYYADSVKGRFTISRDNAKNTVYLQMNSLKPEDTAVYYCNATTGYGGYNYWGQGTQVTVSS”: the “polyreactivity (PSR sort gate)” value is on record as “low polyreactivity”.

Turning to “QVQLVESGGGLVQAGGSLRLSCAASGRIFYYYAMGWYRQAPGKERELVAAISWSGVNTYYADSVKGRFTISRDNAKNTVYLQMNSLKPEDTAVYYCAAGFAYKYSKGFWSDYWGQGTQVTVSS”, the “polyreactivity (PSR sort gate)” value was “high polyreactivity”.

Regarding “QDQLVESGGCLVQAGGSLPLSCAASVFTFSNNVMGWYRQAPGQVRELVATLSKSGGSTYYAVSVKVRFTISRDKAKNSVYLQMNSLNPEATEVYYCASRFGDYGRFAYWGQGTQVSVSS”, the “polyreactivity (PSR sort gate)” value is “high polyreactivity”.

As to “QVQLVESGGGLVQAGGSLRVSCAASGSTFQYYAMGWYRQAPGKERELVARISDSSANTYYADSVKGRFTISRDNAKNTVYLQMNSLKPEYTAVYYCATRRSHVLSEMDYWGQGTQVTVSS”, the “polyreactivity (PSR sort gate)” value is “low polyreactivity”.

On to “QVQLVESGGGLVQAGGSLRLSCAASGLTIGYYAMGWYRQAPGKERELVAAISGSGGATYYADSVKGRFTISRDNAKNTVYLQMNSLKPEDTAVYYCAAKWGRTGRFDYWGQGTQVTVSS”, for which the “polyreactivity (PSR sort gate)” value is reported as “low polyreactivity”.

“QVQLVESGGGLVQAGGSLRLSCAASGRIFWDNALGWYRKAPGTERELVAAISDSVVITYYADSVKGRFTISRDNAKNTVYLQMNSLKPEDSAVYYCAAGGWPYSGGWFFQPNYDYWGQGTQVTVSS”: the “polyreactivity (PSR sort gate)” value is reported as “low polyreactivity”.

On to “QVQLVESGGGLVQAGGSLRISCASSGRIFKINAMGWYRQAPGKERELVATITRDGRTYYADSVKGRFTISRDNAKKTVYLQMNSLKPDDTAVYYCNVRRAFSGWRGYDYWGQGTQVTVSS”, for which the “polyreactivity (PSR sort gate)” value is on record as “high polyreactivity”.

On to “QVQLVESGGGLVQAGGSLRLSCAASGIIFKYYAMGWYRQAPGKERELVAAISSRSGRTYYADSVKGRFTISRDNAKNTVYLQMNSLKPEDTAVYYCNVQVQRSYPYGYWGQGTQVTVSS”, for which the “polyreactivity (PSR sort gate)” value is “high polyreactivity”.

Take “QVQLVESGGGLVQAGGSLRLSCAASGRIFVVNTMGWYRQAPGKERELVAAISFSGVSTYYADSVKGRFTISRDNAKNTVYLQMISLKPEDTAVYYCAAVPYRQYPGGGYWGQGTQVTVSS”: the “polyreactivity (PSR sort gate)” value was “low polyreactivity”.

“QVQLVESGGGLVQAGGSLRLAVLPPDLPSTLNDMGWYRQAPGKERELVAAITRGGSTNYADSVKGRFTLSRDNAKNTVYLQMNSLKPEDTAVYYCAAPYAGWRDGGDYWGQGTQVTVSS”: the “polyreactivity (PSR sort gate)” value is on record as “low polyreactivity”.

As for “QFQLVESGGGLVQAGVSLRLICAASVSTFGYNAMGWYRQAPGKERELVPANNGRGGGTYYADSVKGRFTISRDNAKNTVYLQINSLKPEDTAVYYCAKLRRAGTGRGSHVYRQSDYWGQGTQVTVSS”, the “polyreactivity (PSR sort gate)” value is on record as “high polyreactivity”.

Regarding “QVQLVESGGGLVQAGGSLRLSCAASGIIFKSYAMGWYRQAPGKERELVAAITKRGGSTYYADSVKGRFTISRDNAKNTVYLQMNSLKPEDSAVYYCAAFAVPYDYWGQGTQVTVSS”, the “polyreactivity (PSR sort gate)” value is “high polyreactivity”.

Regarding “QVQLVESGGGLVQAGGSLRLSCAASGFTLKSYAMGWYRQAPGKERELVASISRRGGSTYYADSVKGRFTISRDNAKNTVYLQMNSLKPEDTAVYYCAADRSGSSDGVYWGQGTQVTLSS”, the “polyreactivity (PSR sort gate)” value is recorded as “high polyreactivity”.

On to “QVQLVESGGGLVQAGGSLRLSCAASGRILPFNAMGWHRQAPGKERELVDAIRWRGSSTYYADSVKGRFTISRDNAKNTVYLQMNSLKPEDTAVYYCAAPSSVRGKVISADYGYWGQGTQVTVSS”, for which the “polyreactivity (PSR sort gate)” value is reported as “high polyreactivity”.

With “QVQLVETGGGLVQAGGSLRLSCAASGSTFSRYPMGWYRQAPGKEWELVAAITGTGGRTYYADSVKGRFTISRDNEKNTVYLLMNSLKPEDTAVYYCAAQRWTVKYNYWGQGTQVTVSS”, the “polyreactivity (PSR sort gate)” value was “high polyreactivity”.

Regarding “QVQLVESGVGLVQAGGSLRLSCAASGYTFLYYAMGWYRQAPGTERELVAAISSGGRTYYADSVKGRFTISRDNAKNTVYLQMNSLKPEVTAVYYCNTGALIHNGYYGLDYWGQGTQVTVSS”, the “polyreactivity (PSR sort gate)” value is on record as “high polyreactivity”.

For “QVQRLESAGGLVQAGGSLRLSCAASGFIFSYYAMGWYRQAPGKERELVAAIDGSGGSTYYADSVKGRFTISRDNAKNTVYLQKNSLKPEDTAVYYCNTLIYIQGLGYDYGGQGTQVTVSS”, the “polyreactivity (PSR sort gate)” value is listed as “high polyreactivity”.

For “QVQLVESGGGLVQAGGSLRLSSAASGRIFAGNAMGWYRQAPGKERELVAVISKGGGRTYYADSVKGRFTISRDNAKNTVYLQMNSLKPEDTAVYDCDAEGSYWFRRYGYWGQGTQVTVSS”, the “polyreactivity (PSR sort gate)” value is “high polyreactivity”.

Take “QVQLVESGGGLVQAGGSLRLSCAASGSIFVYNAMGWYRQAPGKERELVAAISQRGGSTYYADSVKGRFTISRDNAKNTVYLQMNSLKPEDTAVYYCAAAPGDSGDDYWGQGTQVTVSS”: the “polyreactivity (PSR sort gate)” value is reported as “low polyreactivity”.

“QVQLVESGAGLVQAGGSLRLICAATGFTLGSNAMGSYRKAPGKERELVAAISKSGGSTYYADSVKGRFTISRDNAKNTVYLQMNSLKPDDTAVYYCAARYLYQGYRYDYWGQGTQVTVSS”: the “polyreactivity (PSR sort gate)” value is listed as “high polyreactivity”.

Take “QVQLVESGGGLVQAGGSLRLSCAASGRIFYNYAMGWYRQAPGKERELVAAITRRAGRTYYADSVKGRFTISRDNSKNTVYLQMNSLKPEDTAVYYCAKDEPGSSRVLYDSWGQGTQVTVSS”: the “polyreactivity (PSR sort gate)” value is “low polyreactivity”.

With “QVQLVESGGGLVQAGGSLRLSCAASGSILSGNTMGWYRPAPGKERELVAAISYGGGSTYYADSVKGRFTISRDNAKNTVYLQMNSLKPEDTAVYYCAADPWYVAYLLDGYGMDYWGQGTQVTVSS”, the “polyreactivity (PSR sort gate)” value is reported as “low polyreactivity”.

As to “QVQLVESGGGLVQAGGSLRLSCAASGRIISRYTMGWSRQAPGKEREWVAGISRSGDRTYYADSVKGRFTISRDNAKNTVYLQMNSLKPEDTAVYSCNAGYWRFIDSYDYWGQGTQVTVSS”, the “polyreactivity (PSR sort gate)” value was “high polyreactivity”.

On to “QVQLVESGGGLVQAGGSLRLSCAASGIILDPNAMGWSRQAPGKERELVAGITRSGVSTYYAESVKGRFTISRDNAKNTVYLKMNSLKPEDTAVYYCAKDRISGSKGEDDDYWGKGTQVTVSS”, for which the “polyreactivity (PSR sort gate)” value was “low polyreactivity”.

Regarding “QVQLVESGGGLVQAGGSLRLICAASGSTFPTYAMGWYRQAPGKERELVAAIDSSGGNTYYADSVKGRFTISRDNAKNTVYLQMNSLKPEDTEVYYCARESVTYFWYYTPEVDYWGQGTQVTVSS”, the “polyreactivity (PSR sort gate)” value is given as “low polyreactivity”.

Regarding “QVQLVESGGGLVQAGGSLRLSCAASGRIFSRYAMGWYRQAPGKERELVAAIASSGTTTYYADSVKGRFTISRDIAKNTVYLQMNSLKAEDTAVYYCATSAVRHIYWGQGTQVTVSS”, the “polyreactivity (PSR sort gate)” value is reported as “high polyreactivity”.

On to “QVQLVESGGGLVQAGGSLRFSCAASGSIFSSYAMGWYRQAPGKERELVAAISSSGDSTYADSVKGRFTISRDNAKNTVYLQMNSLKPEDTAVYYCAVGGAGSDDYWGQGTQVTVSS”, for which the “polyreactivity (PSR sort gate)” value is on record as “low polyreactivity”.

Turning to “QVQLVESGGGLVQAGASLRLSCAASGSIFIWYAMGWYRQAPGKERELVAAITSSGSTNYADSVKGRFTISRDNAKNPVYLQMNSLKPEDTAVYYCAAEYTYYTYNLNYWGQGTQVTVSS”, the “polyreactivity (PSR sort gate)” value was “low polyreactivity”.

With “QVQLVESCGGLVQAGGSLRLRCAASRSIFDSYAMGWYRQAPGKERELVASISYRGGSTYYADSVKGRFTISRDIAKNTVYLQMNSLKPEDTAVYYCAATPGYHYRSWRYYYWGQGNQVTVSS”, the “polyreactivity (PSR sort gate)” value was “high polyreactivity”.

For the sequence “QVQLVESGGGLVQAGGSLRLSCAASGYTFPSNAMGWYREAPGKERELVAAISSGARTNYADSVKGRFTISRDNAKNTVYLQMNSLKPEDTAVYYCNKAAASFRHFYGYGYWGQGTQVTVSS”, the “polyreactivity (PSR sort gate)” value was “low polyreactivity”.

On to “QVQLVESGGGLVQAGGSLRLSCAASGSTFYYYAMGWYRQAPGKERELVASIRSRDGSTRYADSVKGRFTISRDNAKNTVYLQMNSLKPEDTAVYYCAAVGYRRVDAGSSASRYDYWGQGTQVTVSS”, for which the “polyreactivity (PSR sort gate)” value was “high polyreactivity”.

In the case of “QVQLVESGGGLVQAGGSLRLSCAASGSLFSGYTMAWYSQAPGKERELVAAITRSGGRTYYADSVKGRFTISRDNAKNTVYLQMKSLKPEVTAVNYCAAVDRRGANYNYWGQGTQVTVSS”, the “polyreactivity (PSR sort gate)” value is recorded as “high polyreactivity”.

Consider “QVQLVETGGGLVQAGGSLRLSCAASGYTFDGYAMGWYRQAPGKERELVAAINSGGGTYYADSVKGRFTISRDNAKNTVYLLMNSQKPEDTAVYYCAAERVYSDMDYWGQGTQVTVSS”, for which the “polyreactivity (PSR sort gate)” value is “low polyreactivity”.

For the sequence “QVQLVESGGGLVQAGGSLRLSCAASGSTFSYYGMGWYRQAPGKERELVAAIDYSGDSTYYADSVKGRFTISRDNAKNTVYLQMNSMKPEDTALYYCNAAHSVRHYAIHLGYWGQGTQVTVSS”, the “polyreactivity (PSR sort gate)” value is “low polyreactivity”.

Regarding “QVQLVESGGGLVQAGGSLRLSCAASGRPFHRNAMGWYRPAPGKERELVAAITGDGRTNYADSVKGRFTLSRDNAKNTVYLQMNSLKPEDTAFYYCAAEAVWFVGQAFDISDSTTYGFWGQGTQVTVSS”, the “polyreactivity (PSR sort gate)” value was “low polyreactivity”.

In the case of “QVQLVESGGGLVQAGGSLRLSCAASGSTFPYYTMGWYRQAPGKERELVAAITWRGGRTYYADSVKGRFTISRDNAKNTVYLQMNSLKPEDTAVYYCAVYRRWYSGLYDYWGQGTQVTVSS”, the “polyreactivity (PSR sort gate)” value was “high polyreactivity”.
